The source of these data is US10538585 (dated 2020).

One may read the EC50 as the concentration giving half of the maximal effect.

Read-outs that look alike come from different tables or passages of the source.

For experiment [1], the target named is T1, human ANG2-RBD-Fc (human, UniProt O15123).
T1 chain: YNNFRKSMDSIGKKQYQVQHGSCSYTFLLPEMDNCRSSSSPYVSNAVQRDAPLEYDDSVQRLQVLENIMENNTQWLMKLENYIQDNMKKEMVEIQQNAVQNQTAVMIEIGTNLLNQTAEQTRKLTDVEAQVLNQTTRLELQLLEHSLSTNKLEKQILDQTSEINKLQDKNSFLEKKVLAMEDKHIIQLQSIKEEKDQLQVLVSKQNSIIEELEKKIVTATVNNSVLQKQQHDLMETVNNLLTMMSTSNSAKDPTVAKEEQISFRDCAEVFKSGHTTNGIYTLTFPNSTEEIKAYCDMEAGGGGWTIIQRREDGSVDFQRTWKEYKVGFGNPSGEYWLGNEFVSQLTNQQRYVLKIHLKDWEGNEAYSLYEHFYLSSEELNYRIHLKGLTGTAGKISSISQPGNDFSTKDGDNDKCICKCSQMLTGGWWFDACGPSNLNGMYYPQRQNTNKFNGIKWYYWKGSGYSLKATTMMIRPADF
Briefly: SPR. (Surface plasmon resonance follows binding to a sensor surface in real time, without labels.)

The target in experiment [2] is T1, human ANG2-RBD-Fc. Kind of experiment: SPR.
Experiment [3] deals with T2, human ANG2 (human, UniProt O15123).
T2 chain: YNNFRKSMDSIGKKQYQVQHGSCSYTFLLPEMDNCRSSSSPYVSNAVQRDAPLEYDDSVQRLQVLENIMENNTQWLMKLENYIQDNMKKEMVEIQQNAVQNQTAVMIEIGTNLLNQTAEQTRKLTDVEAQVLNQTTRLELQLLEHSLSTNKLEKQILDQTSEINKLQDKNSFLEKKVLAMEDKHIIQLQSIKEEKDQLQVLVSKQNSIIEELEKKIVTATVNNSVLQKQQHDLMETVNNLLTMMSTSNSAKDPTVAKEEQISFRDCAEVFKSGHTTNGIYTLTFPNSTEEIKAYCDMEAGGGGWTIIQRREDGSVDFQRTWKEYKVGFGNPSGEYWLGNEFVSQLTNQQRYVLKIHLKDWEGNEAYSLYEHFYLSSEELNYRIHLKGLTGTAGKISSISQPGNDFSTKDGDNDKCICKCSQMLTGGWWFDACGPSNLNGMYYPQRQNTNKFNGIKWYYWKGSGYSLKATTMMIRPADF
Briefly: competition, Tie2 binding inhibition (pTie2 ELISA). A general note: ELISA stands for enzyme-linked immunosorbent assay.

Experiment [4] deals with T1, human ANG2-RBD-Fc. Kind of experiment: SPR.
Experiment [5] addresses T1, human ANG2-RBD-Fc. Briefly: SPR bivalent.
For experiment [6], the target named is T1, human ANG2-RBD-Fc. Briefly: SPR bivalent.
The target in experiment [7] is T2, human ANG2. Kind of experiment: competition, Tie2 binding inhibition (pTie2 ELISA).
The target in experiment [8] is T1, human ANG2-RBD-Fc. Briefly: SPR.
Experiment [9] concerns the target T1, human ANG2-RBD-Fc. Kind of experiment: SPR.
Experiment [10] concerns the target T1, human ANG2-RBD-Fc. Kind of experiment: SPR.
In experiment [11] the target is T2, human ANG2. Kind of experiment: competition, Tie2 binding inhibition (pTie2 ELISA).
Experiment [12] concerns the target T1, human ANG2-RBD-Fc. Kind of experiment: SPR.

B1: 0090 (antibody)
chain 1: not shown
chain 2: SYVLTQPPSVSVAPGQTARITCGGNNIGSKSVHWYQQKPGQAPVLVVYDTSDRPSGIPERFSGSNSGNTATLTISRVEAGDEADYYCQVWDSSSDHWVFGGGTKLTVLSSASTKGPSVFPLAPSSKSTSGGTAALGCLVKDYFPEPVTVSWNSGALTSGVHTFPAVLQSSGLYSLSSVVTVPSSSLGTQTYICNVNHKPSNTKVDKKVEPKSC
On to B1, for which the Kd with human ANG2-RBD-Fc [1] and in the experiment with human ANG2-RBD-Fc [2] was 1 nM throughout. The same molecule yielded an EC50 in the experiment with human ANG2 [3] of 7 nM.

B2: 0165 ANG2 arm (antibody)
chain 1: not shown
chain 2: SYVLTQPPSVSVAPGQTARITCGGNNIGSKSVHWYQQKPGQAPVLVVYDTSDRPSGIPERFSGSNSGNTATLTISRVEAGDEADYYCQVWDSSSDHWVFGGGTKLTVLSSASTKGPSVFPLAPSSKSTSGGTAALGCLVKDYFPEPVTVSWNSGALTSGVHTFPAVLQSSGLYSLSSVVTVPSSSLGTQTYICNVNHKPSNTKVDKKVEPKSC
In the experiment with human ANG2-RBD-Fc [4], B2 came in with a Kd of 4 nM.

B3: 0100 (antibody)
chain 1: not shown
chain 2: SYVLTQPPSVSVAPGQTARITCGGNNIGSKSVHWYQQKPGQAPVLVVYDTSDRPSGIPERFSGSNSGNTATLTISRVEAGDEADYYCQVWDSSSDHWVFGGGTKLTVLSSASTKGPSVFPLAPSSKSTSGGTAALGCLVKDYFPEPVTVSWNSGALTSGVHTFPAVLQSSGLYSLSSVVTVPSSSLGTQTYICNVNHKPSNTKVDKKVEPKSC
Regarding B3, the Kd with human ANG2-RBD-Fc [5] and with human ANG2-RBD-Fc [6] was 0.008 nM throughout. For the same molecule, a half-maximal response with human ANG2 [7] (EC50) required 3.2 nM.

B4: 0033 (antibody, V domains shown)
VH: not shown
VL: SYVLTQPPSVSVAPGQTARITCGGNNIGSKSVHWYQQKPGQAPVLVVYDDSDRPSGIPERFSGSNSGNTATLTISRVEAGDEADYYCQVWDSSSDHWVFGGGTKLTVLS
B4 registered a Kd with human ANG2-RBD-Fc [8] of 3 nM.

B5: 0061 (antibody, V domains shown)
VH: not shown
VL: SYVLTQPPSVSVAPGQTARITCGGNNIGSKSVHWYQQKPGQAPVLVVYDTSDRPSGIPERFSGSNSGNTATLTISRVEAGDEADYYCQVWDSSSDHWVFGGGTKLTVLS
In the experiment with human ANG2-RBD-Fc [9], B5 displayed a Kd of 18 nM.

B6: 0017 (antibody, V domains shown)
VH: not shown
VL: SYVLTQPPSVSVAPGQTARITCGGNNIGSKSVHWYQQKPGQAPVLVVYDDSDRPSGIPERFSGSNSGNTATLTISRVEAGDEADYYCQVWDSSSDHWVFGGGTKLTVLS
B6: the Kd with human ANG2-RBD-Fc [10] was found to be 12 nM.

B7: 0040 (antibody, V domains shown)
VH: not shown
VL: SYVLTQPPSVSVAPGQTARITCGGNNIGSKSVHWYQQKPGQAPVLVVYDDSDRPSGIPERFSGSNSGNTATLTISRVEAGDEADYYCQVWDSSSDHWVFGGGTKLTVLS
Take B7: the Kd with human ANG2-RBD-Fc [9] came to 23 nM.

B8: 0060 (antibody, V domains shown)
VH: not shown
VL: SYVLTQPPSVSVAPGQTARITCGGNNIGSKSVHWYQQKPGQAPVLVVYDTSDRPSGIPERFSGSNSGNTATLTISRVEAGDEADYYCQVWDSSSDHWVFGGGTKLTVLS
Turning to B8, the Kd in the experiment with human ANG2-RBD-Fc [9] was determined as 21 nM.

B9: 0074 (antibody, V domains shown)
VH: not shown
VL: SYVLTQPPSVSVAPGQTARITCGGNNIGSKSVHWYQQKPGQAPVLVVYDDSDRPSGIPERFSGSNSGNTATLTISRVEAGDEADYYCQVWDSSSDHWVFGGGTKLTVLS
For B9, the Kd with human ANG2-RBD-Fc [2] stood at 16 nM.

B10: 0166 ANG2 arm (antibody, V domains shown)
VH: not shown
VL: SYVLTQPPSVSVAPGQTARITCGGNNIGSKSVHWYQQKPGQAPVLVVYDTSDRPSGIPERFSGSNSGNTATLTISRVEAGDEADYYCQVWDSSSDHWVFGGGTKLTVLS
B10 showed a Kd in the experiment with human ANG2-RBD-Fc [4] of 49 nM.

B11: 0164 ANG2 arm (antibody, V domains shown)
VH: not shown
VL: QPGLTQPPSVSVAPGQTARITCGGNNIGSKSVHWYQQKPGQAPVLVVYDTSDRPSGIPERFSGSNSGNTATLTISRVEAGDEADYYCQVWDSSSDHYVFGTGTKVTVLS
In turn, B11 gave a Kd with human ANG2-RBD-Fc [4] of 39 nM.

B12: 0075 (antibody, V domains shown)
VH: not shown
VL: SYVLTQPPSVSVAPGQTARITCGGNNIGSKSVHWYQQKPGQAPVLVVYDTSDRPSGIPERFSGSNSGNTATLTISRVEAGDEADYYCQVWDSSSDHWVFGGGTKLTVLS
In the case of B12, the Kd with human ANG2-RBD-Fc [1] and with human ANG2-RBD-Fc [2] was 14 nM each time. Further, in the experiment with human ANG2 [3], a half-maximal effect (EC50) was put at 39 nM.

B13: 0041 (antibody, V domains shown)
VH: not shown
VL: SYVLTQPPSVSVAPGQTARITCGGNNIGSKSVHWYQQKPGQAPVLVVYDDSDRPSGIPERFSGSNSGNTATLTISRVEAGDEADYYCQVWDSSSDHWVFGGGTKLTVLS
For B13, the Kd in the experiment with human ANG2-RBD-Fc [1] and with human ANG2-RBD-Fc [9] was 1 nM in each case. This molecule gave a 50% effective concentration (EC50) with human ANG2 [11] of 5.4 nM.

B14: 0155 (antibody, V domains shown)
VH: not shown
VL: QPGLTQPPSVSVAPGQTARITCGGNNIGSKSVHWYQQKPGQAPVLVVYDTSDRPSGIPERFSGSNSGNTATLTISRVEAGDEADYYCQVWDSSSDHYVFGTGTKVTVLS
In the experiment with human ANG2-RBD-Fc [12], B14 registered a Kd of 43 nM.

B15: 0058 (antibody, V domains shown)
VH: not shown
VL: SYVLTQPPSVSVAPGQTARITCGGNNIGSKSVHWYQQKPGQAPVLVVYDDSDRPSGIPERFSGSNSGNTATLTISRVEAGDEADYYCQVWDSSSDHWVFGGGTKLTVLS
In the case of B15, the Kd with human ANG2-RBD-Fc [9] came to 21 nM.

B16: 0025 (antibody, V domains shown)
VH: not shown
VL: SYVLTQPPSVSVAPGQTARITCGGNNIGSKSVHWYQQKPGQAPVLVVYDDSDRPSGIPERFSGSNSGNTATLTISRVEAGDEADYYCQVWDSSSDHWVFGGGTKLTVLS
Regarding B16, the Kd in the experiment with human ANG2-RBD-Fc [10] is 38 nM.

B17: 0156 (antibody, V domains shown)
VH: not shown
VL: QPGLTQPPSVSVAPGQTARITCGGNNIGSKSVHWYQQKPGQAPVLVVYDTSDRPSGIPERFSGSNSGNTATLTISRVEAGDEADYYCQVWDSSSDHYVFGTGTKVTVLS
Regarding B17, the Kd with human ANG2-RBD-Fc [12] was 5 nM.

B18: 0057 (antibody, V domains shown)
VH: not shown
VL: SYVLTQPPSVSVAPGQTARITCGGNNIGSKSVHWYQQKPGQAPVLVVYDDSDRPSGIPERFSGSNSGNTATLTISRVEAGDEADYYCQVWDSSSDHWVFGGGTKLTVLS
As to B18, in the experiment with human ANG2-RBD-Fc [9], the Kd came to 29 nM.

B19: 0028 (antibody, V domains shown)
VH: not shown
VL: SYVLTQPPSVSVAPGQTARITCGGNNIGSKSVHWYQQKPGQAPVLVVYDDSDRPSGIPERFSGSNSGNTATLTISRVEAGDEADYYCQVWDSSSDHWVFGGGTKLTVLS
B19: in the experiment with human ANG2-RBD-Fc [8], the Kd stood at 143 nM.

B20: 0042 (antibody, V domains shown)
VH: not shown
VL: SYVLTQPPSVSVAPGQTARITCGGNNIGSKSVHWYQQKPGQAPVLVVYDDSDRPSGIPERFSGSNSGNTATLTISRVEAGDEADYYCQVWDSSSDHWVFGGGTKLTVLS
As to B20, the Kd in the experiment with human ANG2-RBD-Fc [9] was found to be 4 nM.

B21: 0027 (antibody, V domains shown)
VH: not shown
VL: SYVLTQPPSVSVAPGQTARITCGGNNIGSKSVHWYQQKPGQAPVLVVYDDSDRPSGIPERFSGSNSGNTATLTISRVEAGDEADYYCQVWDSSSDHWVFGGGTKLTVLS
In turn, B21 registered a Kd with human ANG2-RBD-Fc [8] of 69 nM.

B22: 0026 (antibody, V domains shown)
VH: not shown
VL: SYVLTQPPSVSVAPGQTARITCGGNNIGSKSVHWYQQKPGQAPVLVVYDDSDRPSGIPERFSGSNSGNTATLTISRVEAGDEADYYCQVWDSSSDHWVFGGGTKLTVLS
As to B22, the Kd with human ANG2-RBD-Fc [10] came to 18 nM.

B23: 0099 (antibody, V domains shown)
VH: not shown
VL: SYVLTQPPSVSVAPGQTARITCGGNNIGSKSVHWYQQKPGQAPVLVVYDDSDRPSGIPERFSGSNSGNTATLTISRVEAGDEADYYCQVWDSSSDHWVFGGGTKLTVLS
As for B23, the Kd in the experiment with human ANG2-RBD-Fc [5] and with human ANG2-RBD-Fc [6] was 0.004 nM in each case. The half-maximal effective concentration (EC50) with human ANG2 [7] is 3.2 nM.

B24: 0163 ANG2 arm (antibody, V domains shown)
VH: not shown
VL: QPGLTQPPSVSVAPGQTARITCGGNNIGSKSVHWYQQKPGQAPVLVVYDTSDRPSGIPERFSGSNSGNTATLTISRVEAGDEADYYCQVWDSSSDHYVFGTGTKVTVLS
For B24, the Kd with human ANG2-RBD-Fc [4] was 4 nM.

B25: 0101 (antibody, V domains shown)
VH: not shown
VL: SYVLTQPPSVSVAPGQTARITCGGNNIGSKSVHWYQQKPGQAPVLVVYDTSDRPSGIPERFSGSNSGNTATLTISRVEAGDEADYYCQVWDSSSDHWVFGGGTKLTVLS
As to B25, the Kd in the experiment with human ANG2-RBD-Fc [5] and with human ANG2-RBD-Fc [6] was 0.007 nM throughout. In the experiment with human ANG2 [7], this molecule showed an EC50 of 3 nM.
